Data as given in CN118638216A (CHENZHOU NO 1 PEOPLES HOSPITAL, dated 2024).

Assays:
[1] = molecular target: SARS-CoV S1蛋白(Sino Biological，货号:40150-V08B1) (SARS-CoV, UniProt P59594 14-667); test: ELISA, S1 protein coated at 2 μg/mL, antibody titrated from 10 μg/mL
[2] = molecular target: SARS-CoV-2 Gamma突变株S蛋白 (假病毒, Genebank:MZ427312.1) (SARS-CoV-2 Gamma突变株); test: cell-based or functional assay
[3] = molecular target: T1, SARS-CoV-2 S1蛋白(Sino Biological，货号:40591-V08H) (SARS-CoV-2, UniProt P0DTC2 16-685); test: ELISA, S1 protein coated at 2 μg/mL, antibody at 1 μg/mL
T1 construct: domain: S1

[4] = molecular target: T2, SARS-CoV-2 Wuhan-Hu-1 S蛋白(Sino Biological，货号:40589-V08B1) (SARS-CoV-2 Wuhan-Hu-1, UniProt P0DTC2 14-1213); test: ELISA screen, S protein coated at 2 μg/mL, antibody at 1 μg/mL
T2 construct: extracellular domain

[5] = molecular target: T3, SARS-CoV-2 S2蛋白(Sino Biological，货号:40590-V08B) (SARS-CoV-2, UniProt P0DTC2 686-1213); test: ELISA, S2 protein coated at 2 μg/mL, antibody at 1 μg/mL, anti-human IgG-HRP
T3 construct: domain: S2

B1: 全人源广谱抗sarbecovirus和/或新冠突变株的抗体(VSCM8-83) (antibody, V domains shown)
VH: EVQLVEFGGGLVQPGGSLRLSCAASGFAVSSNYMSWVRQAPGKGLEWVSVIYGDGTTYYGDSVKGRFTISRHNSKNTLYLQMNSLRTEDTAVYYCARIVSEAFDLWGQGTMVTVSS
VL: DIQMTQSPSTLSASVGDRVTITCRASQSIGRWLAWYQQKPGKAPKLLIYMASILESGVPSRFSGSGSATEFTLTISSLQPDDFATYYCQQYNGYSQYTFGQGTKLEIKR
binding result [1]: binds | 假病毒中和 IC50 [2]: 0.0207 µg/mL | binding result [3]: binds | binding result [4]: binds | binding result [5]: no binding (tested: 1μg/mL)
